{
  "source": "patent US20050277175",
  "target": "bovine aggrecan (UniProt P13608)",
  "sequence (P13608 20-2364)": "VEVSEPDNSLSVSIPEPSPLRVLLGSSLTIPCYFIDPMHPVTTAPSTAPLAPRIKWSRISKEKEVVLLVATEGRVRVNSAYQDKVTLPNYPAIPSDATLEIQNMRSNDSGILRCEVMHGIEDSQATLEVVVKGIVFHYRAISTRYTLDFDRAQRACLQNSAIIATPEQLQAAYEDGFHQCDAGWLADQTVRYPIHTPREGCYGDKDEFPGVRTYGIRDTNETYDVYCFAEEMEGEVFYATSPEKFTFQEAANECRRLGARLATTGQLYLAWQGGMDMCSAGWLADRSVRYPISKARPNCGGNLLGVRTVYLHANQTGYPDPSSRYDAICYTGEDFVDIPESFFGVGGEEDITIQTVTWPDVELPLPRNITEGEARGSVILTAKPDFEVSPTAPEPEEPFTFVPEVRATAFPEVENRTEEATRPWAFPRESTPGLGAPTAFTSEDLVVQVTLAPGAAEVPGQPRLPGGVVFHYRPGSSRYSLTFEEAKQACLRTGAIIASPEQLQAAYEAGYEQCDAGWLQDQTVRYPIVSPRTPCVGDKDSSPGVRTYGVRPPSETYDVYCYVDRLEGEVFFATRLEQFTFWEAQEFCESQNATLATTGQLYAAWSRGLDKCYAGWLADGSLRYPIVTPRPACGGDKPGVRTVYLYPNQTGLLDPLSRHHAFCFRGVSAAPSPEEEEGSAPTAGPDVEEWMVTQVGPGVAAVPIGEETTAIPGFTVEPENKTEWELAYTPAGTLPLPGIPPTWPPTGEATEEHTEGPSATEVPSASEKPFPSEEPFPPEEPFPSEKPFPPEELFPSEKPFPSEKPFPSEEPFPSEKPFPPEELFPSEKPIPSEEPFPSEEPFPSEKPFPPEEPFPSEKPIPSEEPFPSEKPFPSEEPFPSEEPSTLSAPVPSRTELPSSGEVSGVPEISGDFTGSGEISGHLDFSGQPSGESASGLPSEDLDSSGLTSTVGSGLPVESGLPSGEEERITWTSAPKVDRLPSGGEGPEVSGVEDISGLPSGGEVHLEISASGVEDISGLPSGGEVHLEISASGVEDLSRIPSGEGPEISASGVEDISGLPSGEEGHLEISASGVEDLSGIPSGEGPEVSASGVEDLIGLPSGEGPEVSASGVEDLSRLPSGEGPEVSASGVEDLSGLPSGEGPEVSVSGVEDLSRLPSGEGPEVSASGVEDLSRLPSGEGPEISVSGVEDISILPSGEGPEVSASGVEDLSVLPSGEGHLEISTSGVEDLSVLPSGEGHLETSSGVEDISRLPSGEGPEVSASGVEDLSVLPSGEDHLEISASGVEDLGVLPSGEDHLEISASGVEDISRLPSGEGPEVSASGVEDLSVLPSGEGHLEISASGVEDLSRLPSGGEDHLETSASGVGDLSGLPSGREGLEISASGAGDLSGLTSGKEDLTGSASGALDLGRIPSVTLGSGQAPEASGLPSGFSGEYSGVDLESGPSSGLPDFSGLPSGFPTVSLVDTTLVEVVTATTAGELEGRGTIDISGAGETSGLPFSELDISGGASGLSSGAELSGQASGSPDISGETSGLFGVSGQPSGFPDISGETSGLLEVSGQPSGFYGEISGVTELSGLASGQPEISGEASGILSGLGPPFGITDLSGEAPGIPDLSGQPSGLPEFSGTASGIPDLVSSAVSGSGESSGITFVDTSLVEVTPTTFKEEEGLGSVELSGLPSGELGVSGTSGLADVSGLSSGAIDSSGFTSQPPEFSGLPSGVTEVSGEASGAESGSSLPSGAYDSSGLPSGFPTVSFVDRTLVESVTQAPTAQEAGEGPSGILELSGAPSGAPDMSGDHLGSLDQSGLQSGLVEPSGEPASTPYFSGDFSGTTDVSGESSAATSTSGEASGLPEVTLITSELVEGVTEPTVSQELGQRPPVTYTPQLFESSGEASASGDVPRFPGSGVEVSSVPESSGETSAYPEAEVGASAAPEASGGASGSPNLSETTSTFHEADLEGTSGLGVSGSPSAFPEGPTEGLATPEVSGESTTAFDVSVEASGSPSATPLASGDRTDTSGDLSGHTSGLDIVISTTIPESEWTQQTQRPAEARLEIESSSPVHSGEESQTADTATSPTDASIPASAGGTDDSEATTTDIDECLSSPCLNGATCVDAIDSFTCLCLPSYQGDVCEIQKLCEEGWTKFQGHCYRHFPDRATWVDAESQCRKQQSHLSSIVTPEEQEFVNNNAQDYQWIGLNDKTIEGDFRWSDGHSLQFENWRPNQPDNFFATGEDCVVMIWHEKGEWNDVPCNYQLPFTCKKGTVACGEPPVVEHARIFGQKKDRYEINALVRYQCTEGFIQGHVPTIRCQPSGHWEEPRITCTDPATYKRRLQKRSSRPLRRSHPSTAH",
  "data": [
    {"substance": "recombinant aggrecanase 1 protein (ADAMTS-4)", "values": [
      {"measurement": "aggrecanase activity (digestion of bovine aggrecan, neoepitope Western blot with C1 MAb)", "result": "Positive control is recombinant aggrecanase 1 protein (ADAMTS-4)"}
    ]}
  ]
}
